From patent US20080292639A1 (Amgen, published 2008) come the findings set out here.

“And” between values parts separate entries of the source, which are not always exact repeats. Equal values may be shown once. Bounds are passed on as bounds.

The target in assay [1] is T1, human Aβ40 fibrils (human, UniProt P05067 672-711).
T1 construct: domain: Aβ40; Aggregated (fibrillar) form; also called Fibrillar Aβ40; Aβ40 aggregate
Nature of the assay: BIAcore, antibody injected over immobilized Aβ aggregates. On the procedure: (§1) Preparation of BIacore Chip Surfaces: Immobilization of Proteins to a Biacore sensor chip (CM5) was performed according to manufacturer's instructions. Briefly, carboxyl groups on the sensor chip surfaces were activated by injecting 60 μL of a mixture containing 0.2 M N-ethyl-N′-(dimethylaminopropyl)carbodiimide (EDC) and 0.05 M N-hydroxysuccinimide (NHS). Specific surfaces were obtained by injecting rProtein G (Pierce), goat anti-mouse Fc (Jackson Immuno Research Lab) or Aβ aggregates diluted in 10 mM acetate, pH 4.0 at concentrations between 5 and 20 μg/mL. Excess reactive groups on the surfaces were deactivated by injecting 60 μL of 1 M ethanolamine. Final immobilized levels were about 10000 resonance units (RU) for the Protein G and anti-mouse Fc surfaces, and 400 RU for the Aβ aggregates surfaces. A blank, mock-coupled reference surface was also prepared on the sensor chips for background subtraction.
(§2) Kinetic analysis of antibodies binding to immobilized Aβ aggregates: Antibodies were diluted in PBS+0.005% P-20+0.1 mg/mL BSA from 100 nM to 0.2 nM. The samples at each concentration were injected over the immobilized Aβ aggregate surfaces, as well as over a blank surface for background subtraction. After a 15-minute dissociation, the surface was regenerated by injecting 8 mM glycine, pH 3.0, and 1 M NaCl for 30 seconds.
A general note: In SPR one partner is held on a chip, and binding of the other changes the refractive index at the surface.

Assay [2] addresses T2, human Aβ42 fibrils (human, UniProt P05067 672-713).
T2 construct: domain: Aβ42; Aggregated (fibrillar) form; also called Fibrillar Aβ42; Aβ42 aggregate
Described as above. Here is the method: as §1, §2

Assay [3] has as its target T3, human Aβ40 monomer (human, UniProt P05067 672-711).
T3 construct: domain: Aβ40; Monomeric form
The assay can be described thus: ELISA on plate-coated monomer, time-resolved europium fluorescence. On the procedure: (§3) The same techniques were used for the coating of the microtiter plate for monomer ELISA. The fibrils Aβ monomer were diluted to 2.5 μg/ml in Coating buffer and mixed thoroughly. The solution was aliquoted into the wells of a microtiter plate [Immulon-2; VWR; Cat.#62404-972] at 100 μl per well. The plate was sealed and incubated overnight at 4° C. The plate was washed 5-10× to remove Aβ coating solution prior to starting the assay.
(§4) The wells were blocked with 200 μl of blocking solution and incubated for ≧1 hour at room temperature (RT) with shaking. The blocking solution was flicked out and gently dried on a paper towel. 100 μl of primary antibody diluted in PBS containing 10% blocking solution was added to each well and the plate was incubated at RT for 1 hour with shaking. The plate was washed with 5-10× in TBS, pH 7.5+0.05% Tween 20. 100 μl of secondary antibodies (each diluted 1-2,000-fold in PBS) was added to each well and the plate was incubate at RT for 1 hour with shaking. The plate was washed with 5-10× in TBS, pH 7.5+0.05% Tween 20. 100 μl Streptavidin-Europium reagent (1-1,000-fold dilution) was added and the plated was incubated at RT for 45 minutes with shaking. The plate was washed 5-10× in TBS, pH 7.5+0.05% Tween 20. 120 μl Enhance Solution was added and the plate was incubated at RT for 15-30 minutes with shaking. The plate was read on a Victor TRF plate reader (Europium program).

Assay [4] addresses T4, human Aβ42 monomer (human, UniProt P05067 672-713).
T4 construct: domain: Aβ42; Monomeric form
The assay is described as above. On the procedure:
as §3, §4

The target of assay [5] is amyloid plaques in unfixed brain sections of a human AD patient (human, UniProt P05067 672-713). Nature of the assay: cell-based or functional assay.
Assay [6] concerns the target T5, native amyloid plaques in unfixed brain sections of Tg2576 APP transgenic mice (human, UniProt P05067 672-713, limits assumed). Nature of the assay: cell-based or functional assay.
Assay [7] has as its target T1, human Aβ40 fibrils. Nature of the assay: ELISA on plate-dried fibrils, time-resolved europium fluorescence. Here is the method:
(§5) The fibrils (Aβ or collagen) were diluted to 10 μg/ml in water and mixed thoroughly. The solution was aliquoted into the wells of a microtiter plate (Immulon-2; VWR; Cat # 62404-972) at 50 μl per well (resulting in 0.5 μg fibrils/well final). The plate was dried overnight by being placed uncovered in a 37° C. incubator.
as §4
For orientation: An ELISA detects its analyte on a solid surface through an enzyme-linked reagent.

Assay [8] concerns the target T2, human Aβ42 fibrils. The assay is described as above. Here is the method: as §5, §4
The target of assay [9] is T1, human Aβ40 fibrils. The assay can be described thus: BIAcore, antibody injected over immobilized Aβ fibrils. On the procedure:
as §1, §2
(§6) The kinetic analysis assay as described above was repeated using various humanized versions of anti-Aβ antibodies (2.1 chimera, 2.1 B, 2.1 C, 2.1 D, 2.1 E, 2.1 F, 2.1 G, 2.1 E.K5, 2.1E.K5R, 2.1 G.K5, 2.1 G.K5R, 2.1 I.K5R and 2.1 L).

In assay [10] the target is T2, human Aβ42 fibrils. Described as above. On the procedure:
as §1, §2, §6

Assay [11] concerns the target T3, human Aβ40 monomer. The assay can be described thus: BIAcore, antibody captured on protein G or anti-mouse Fc, Aβ monomer injected. Here is the method: as §1
(§7) Kinetic analysis of Aβ monomers binding to protein G captured antibodies: The kinetic analysis of the interaction between Aβ monomers and antibodies was performed as follows: 2.1A and mAb 2.1 were diluted in PBS+0.005% P-20+0.1 mg/mL BSA and injected over the immobilized protein G or anti-mouse Fc surfaces. Aβ monomers were diluted in PBS+0.005% P-20+0.1 mg/mL BSA from 1000 nM to 2 nM, and each concentration was injected over the captured antibody surfaces. After 3 minutes dissociation, each surface was regenerated by injection of 10 mM glycine, pH 1.5.

The target in assay [12] is T4, human Aβ42 monomer. The assay is described as above. Here is the method: as §1, §7
Assay [13] has as its target T5, native amyloid plaques in unfixed brain …. Nature of the assay: immunohistochemistry on unfixed Tg2576 mouse brain sections.
For assay [14] the target is unchanged. The assay can be described thus: cell-based or functional assay. This is another data set of the same source.

T3 sequence (P05067 672-711 limits assumed): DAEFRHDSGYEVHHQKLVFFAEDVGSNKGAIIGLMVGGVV
T1 sequence (P05067 672-711 limits assumed): as above
T5 sequence (P05067 672-713 limits assumed): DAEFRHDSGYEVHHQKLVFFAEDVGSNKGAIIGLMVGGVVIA
T2 sequence (P05067 672-713 limits assumed): as above
T4 sequence (P05067 672-713 limits assumed): as above
Sequence of amyloid plaques in unfixed brain sections of a human AD patient (P05067 672-713): as the sequence (P05067 672-713 limits assumed) above

B1: 2.1 A (antibody, human IgG1, kappa)
heavy: not shown
light: DVLMTQSPLSLPVTLGQPASISCRSSQSIVHSNGNTYLEWYLQRPGQSPKLLIYKVSNRFSGVPDRFSGSGSGTDFTLKISRVEAEDVGVYYCFQGSHVPLTFGAGTKLEIKRTVAAPSVFIFPPSDEQLKSGTASVVCLLNNFYPREAKVQWKVDNALQSGNSQESVTEQDSKDSTYSLSSTLTLSKADYEKHKVYACEVTHQGLSSPVTKSFNRGEC
notes: Humanized IgG
For B1, the koff is under 5e-05 s⁻¹ in the assay with human Aβ40 fibrils [1]; under 5e-05 s⁻¹ with human Aβ42 fibrils [2]; under 5e-05 s⁻¹ with human Aβ40 fibrils [9]; under 5e-05 s⁻¹ in the assay with human Aβ42 fibrils [10]; 0.0094 s⁻¹ with human Aβ40 monomer [11]; 0.0049 s⁻¹ with human Aβ42 monomer [12]. The EC50 with human Aβ40 monomer [3] turned out to be 0.029 nM; with human Aβ42 monomer [4], 0.031 nM; with human Aβ40 fibrils [7], 0.065 nM; with human Aβ42 fibrils [8], 0.074 nM. Further, the “EC50 of phagocytosis by IC-21 cells on human AD brain sections” value in assay [5] came out at 0.72 µg/mL. In addition, the “EC50 (µg/ml), ex vivo phagocytosis” value in assay [6] stood at 0.83 µg/mL. The Kd came out at 68 nM with human Aβ40 monomer [11] and 50 nM in the assay with human Aβ42 monomer [12]. The kon in the assay with human Aβ40 monomer [11] worked out at 140000 M⁻¹ s⁻¹; with human Aβ42 monomer [12], 98000 M⁻¹ s⁻¹.

B2: 2.1 N (antibody, human IgG1, kappa, V domains shown)
VH: QVTLKESGPALVKPTQTLTLTCTFSGFSLRTSGMGVGWIRQPPGKGLEWLAHIWWDDDKSYNPSLKSQLTISKDTSKNQVVLTMTNMDPVDTATYYCARRNYYYDDYFAYWGQGTTLTVSS
VL: DVVMTQSPLSLPVTLGQPASISCRSSQSIVHSNGNTYLEWFQQRPGQSPRRLIYKVSNRFSGVPDRFSGSGSGTDFTLKISRVEAEDVGVYYCFQGSHVPLTFGQGTKLEIKR
notes: Humanized IgG
As for B2, in assay [13], the binding result is recorded as “no binding (tested: 1 µg/ml)”.

B3: 2.1 chimera (murine/human chimeric form of antibody 2.1) (antibody, V domains shown)
VH: QVTLKESGPGILKPSQTLSLTCSFSGFSLRTSGMGVGWIRQPSGKGLEWLAHIWWDDDKSYNPSLKSQLTISKDTSRNQVFLKITSVDTADTATYYCARRNYYYDDYFAYWGQGTTLTVSS
VL: DVLMTQTPLSLPVSLGDQASISCRSSQSIVHSNGNTYLEWYLQKPGQSPKLLIYKVSNRFSGVPDRFSGSGSGTDFTLKISRVEAEDLGVYYCFQGSHVPLTFGAGTKLELK
notes: also called chimera 2.1; (CHO) 2.1 Chimera (control)
As for B3, the EC50 turned out to be 0.031 nM with human Aβ40 monomer [3], 0.034 nM with human Aβ42 monomer [4], 0.06 nM with human Aβ40 fibrils [7] and 0.072 nM with human Aβ42 fibrils [8]. Moreover, the “EC50 (µg/ml), ex vivo phagocytosis” value in assay [6] came to 0.8 µg/mL. Moreover, in assay [6], the “EC50 (µg/ml), ex vivo phagocytosis; 2.1 Chimera (293)” value came to 1.08 µg/mL. Besides, the “EC50 (µg/ml), ex vivo phagocytosis; 2.1 Chimera (CHO)” value in assay [6] was 0.7 µg/mL. Also, the koff with human Aβ40 fibrils [9] was 0.00012 s⁻¹ and 5.9e-05 s⁻¹; with human Aβ42 fibrils [10], 6.9e-05 s⁻¹ and 6.3e-05 s⁻¹.

B4: murine monoclonal anti-amyloid antibody 2.1 (antibody, mouse IgG1, kappa, V domains shown)
VH: QVTLKESGPGILKPSQTLSLTCSFSGFSLRTSGMGVGWIRQPSGKGLEWLAHIWWDDDKSYNPSLKSQLTISKDTSRNQVFLKITSVDTADTATYYCARRNYYYDDYFAYWGQGTTLTVSS
VL: DVLMTQTPLSLPVSLGDQASISCRSSQSIVHSNGNTYLEWYLQKPGQSPKLLIYKVSNRFSGVPDRFSGSGSGTDFTLKISRVEAEDLGVYYCFQGSHVPLTFGAGTKLELKR
notes: also called mAb 2.1; 2.1 murine
Regarding B4, the koff was under 5e-05 s⁻¹ with human Aβ40 fibrils [1], under 5e-05 s⁻¹ with human Aβ42 fibrils [2], 0.0041 s⁻¹ with human Aβ40 monomer [11] and 0.00072 s⁻¹ with human Aβ42 monomer [12]. In [14], the “EC50 of antibody induced phagocytosis of amyloid” value turned out to be 0.4 µg/mL. For the same molecule, the Kd turned out to be 42 nM with human Aβ40 monomer [11] and 17 nM with human Aβ42 monomer [12]. The figures for the kon in the assay with human Aβ40 monomer [11] and in the assay with human Aβ42 monomer [12] were 98000 M⁻¹ s⁻¹ and 42000 M⁻¹ s⁻¹, respectively.

As usually defined, the koff is a measure of how fast the partners let go of each other. Usually EC50 stands for the midpoint of the concentration-response curve. Usually Kd stands for the free concentration of one partner at which half of the binding sites on the other are occupied at equilibrium, for simple one-to-one binding. A lower Kd goes with a tighter complex. As usually defined, the kon is the rate constant with which the complex forms. Low values mean slower complex formation, high ones faster complex formation.
